According to article PMC11615322 (Nature Communications, 2024):

Molecular target: GST-Keap1 (human, UniProt Q14145 1-624)
Assay: pull-down

Sequence of GST-Keap1 (Q14145 whole entry): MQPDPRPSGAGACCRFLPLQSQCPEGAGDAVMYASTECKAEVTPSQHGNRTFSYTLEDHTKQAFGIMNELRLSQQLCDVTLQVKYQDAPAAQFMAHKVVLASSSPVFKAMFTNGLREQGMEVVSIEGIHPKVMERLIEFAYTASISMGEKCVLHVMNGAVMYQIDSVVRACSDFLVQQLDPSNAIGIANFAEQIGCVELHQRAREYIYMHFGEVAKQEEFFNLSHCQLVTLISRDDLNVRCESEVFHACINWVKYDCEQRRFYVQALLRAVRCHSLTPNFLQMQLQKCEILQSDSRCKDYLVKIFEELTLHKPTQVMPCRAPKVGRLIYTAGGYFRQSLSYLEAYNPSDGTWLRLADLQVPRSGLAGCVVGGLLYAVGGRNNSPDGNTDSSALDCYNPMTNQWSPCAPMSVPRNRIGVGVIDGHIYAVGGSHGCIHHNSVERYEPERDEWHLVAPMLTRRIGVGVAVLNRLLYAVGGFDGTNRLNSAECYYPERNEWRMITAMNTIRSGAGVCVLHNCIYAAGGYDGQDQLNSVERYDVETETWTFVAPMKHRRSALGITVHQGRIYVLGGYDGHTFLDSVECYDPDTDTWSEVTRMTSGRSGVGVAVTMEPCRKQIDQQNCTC

binding result: binds
B1: His-SRX (natural protein)
chain: not shown
